From the supplement of paper PMC7877785
± gives the uncertainty stated by the source.

Assay: self-splicing fitness, log relative to wild type (ln ratio); higher = more splicing; Tetrahymena group I intron in knt gene, E. coli kanamycin selection, DiMSum; sequences stand for … in CUCUCU…GGAGGGAAAAGUUAUCAGGCAUGCACCUGGUAGCUAGUCUUUAAACCAAUAGAUUGCAUCGGUUUAAAAGGCAAGACCGUCAAAUUGCGGGAAAGGGGUCAACAGCCGUUCAGUACCAAGUCUCAGGGGAAACUUUGAGAUGGCCUUGCAAAGGGUAUGGUAAUAAGCUGACGGACAUGGUCCUAACCACGCAGCCAAGUCCUAAGUCAACAGAUCUUCUGUUGAUAUGGAUGCAGUUCACAGACUAAAUGUCGGUCGGGGAAGAUGUAUUCUUCUCAUAAGAUAUAGUCGGACCUCUCCUUAAUGGGAGCUAGCGGAUGAAGUGAUGCAACACUGGAGCCGCUGGGAACUAAUUUGUAUGCGAAAGUAUAUUGAUUAGUUUUGGAGUACUCGUGGUCG
Outline: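 Fitness was computed with DiMSum as the error-weighted combination of replicate fold changes, kanamycin versus none, each normalised to wild type. The library randomised all eight intron nucleotides of the P1ex region, with the intron placed in the knt kanamycin-resistance gene on pET-22b(+) in E. coli BL21(DE3). Six replicate transformations were grown overnight at 37°C or 30°C on LB agar with or without 25 μg/mL kanamycin, plus 100 μg/mL carbenicillin, 50 μM IPTG and 0.2% rhamnose. Pooled colonies were amplicon-sequenced on an Illumina HiSeq 2500.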

Sequence | self-splicing fitness (ln) (30 °C) | self-splicing fitness (ln) (37 °C)
CCCGAGCAAUAUUACGGCGU | -2.83 ± 0.13 | -1.71 ± 0.13
CCCGAGCAAUAUUACGGGGA | -3.49 ± 0.21 | -2.14 ± 0.11
CCCGAGCAAUAUUACGGGUG | -3.42 ± 0.18 | -1.7 ± 0.12
CCCGAGCAAUAUUACGGUUU | -3.14 ± 0.11 | -1.96 ± 0.12
CCCGAGCAAUAUUACGUAAA | -3.27 ± 0.15 | -2.94 ± 0.2
CCCGAGCAAUAUUACGUAGA | -3.94 ± 0.3 | -2.92 ± 0.24
CCCGAGCAAUAUUACGUGCU | -3.55 ± 0.21 | -1.32 ± 0.16
CCCGAGCAAUAUUACGUGGC |  | -3.58 ± 0.25
CCCGAGCAAUAUUACGUGGG | -3.97 ± 0.19 | -2.79 ± 0.19
CCCUAGCAAUAUUACGAAGA | -2.34 ± 0.21 | -2.67 ± 0.26
CCCUAGCAAUAUUACGAGAA | -2.85 ± 0.45 | -2.67 ± 0.44
CCCUAGCAAUAUUACGAGAC | -3.85 ± 0.22 | -2.69 ± 0.34
CCCUAGCAAUAUUACGAGCA | -2.64 ± 0.21 | -3.08 ± 0.18
CCCUAGCAAUAUUACGCACA | -2.5 ± 0.14 | -1.97 ± 0.15
CCCUAGCAAUAUUACGCCCC | -3.88 ± 0.37 | -3.05 ± 0.47
CCCUAGCAAUAUUACGCCCG | -3.81 ± 0.37 | -2.12 ± 0.37
CCCUAGCAAUAUUACGCGGA | -1.29 ± 0.12 | -0.827 ± 0.1
CCCUAGCAAUAUUACGCUCU | -4.04 ± 0.28 | -1.45 ± 0.2
CCCUAGCAAUAUUACGGAAC | -4.39 ± 0.43 | -2.85 ± 0.4
CCCUAGCAAUAUUACGGAGC | -3.31 ± 0.21 | -2.22 ± 0.23
CCCUAGCAAUAUUACGGCAC | -3.42 ± 0.21 | -1.5 ± 0.2
CCCUAGCAAUAUUACGGCCG | -2.29 ± 0.36 | -1.62 ± 0.34
CCCUAGCAAUAUUACGGCGU | -2.1 ± 0.15 | -2.35 ± 0.17
CCCUAGCAAUAUUACGGGCA | -2.16 ± 0.22 | -1.55 ± 0.2
CCCUAGCAAUAUUACGGGUA | -2.41 ± 0.14 | -3.01 ± 0.19

Sequence | self-splicing fitness (ln) (30 °C) | self-splicing fitness (ln) (37 °C)
CCCUAGCAAUAUUACGGGUU | -4.16 ± 0.17 | -2.39 ± 0.15
CCCUAGCAAUAUUACGUAGA | -4.06 ± 0.26 | -3.05 ± 0.26
CCGAAGCAAUAUUACGAAAU | -4.57 ± 0.29 | -1.9 ± 0.2
CCGAAGCAAUAUUACGAAGA | -3.27 ± 0.39 | 
CCGAAGCAAUAUUACGAAGC |  | -1.59 ± 0.24
CCGAAGCAAUAUUACGACGG | -3.76 ± 0.27 | -3.11 ± 0.29
CCGAAGCAAUAUUACGACUU | -2.97 ± 0.22 | -3.91 ± 0.39
CCGAAGCAAUAUUACGAUCA | -2.35 ± 0.13 | -0.736 ± 0.14
CCGAAGCAAUAUUACGAUUA | -2.53 ± 0.14 | -2.31 ± 0.2
CCGAAGCAAUAUUACGCAGC | -3.49 ± 0.23 | -2.36 ± 0.37
CCGAAGCAAUAUUACGCCAG | -1.32 ± 0.11 | -0.531 ± 0.13
CCGAAGCAAUAUUACGCGCA | -2.85 ± 0.28 | -1.95 ± 0.21
CCGAAGCAAUAUUACGCGGA | -3.61 ± 0.43 | -1.78 ± 0.19
CCGAAGCAAUAUUACGCGGU | -3.64 ± 0.22 | -2.11 ± 0.2
CCGAAGCAAUAUUACGGCCU | -3.94 ± 0.36 | -2.02 ± 0.33
CCGAAGCAAUAUUACGGGGG | -4.9 ± 0.46 | -2.26 ± 0.33
CCGAAGCAAUAUUACGUAUU | -4.74 ± 0.29 | -3.35 ± 0.2
CCGAAGCAAUAUUACGUGCA | -3.4 ± 0.3 | 
CCGAAGCAAUAUUACGUGCU | -4 ± 0.24 | -2.88 ± 0.28
CCGAAGCAAUAUUACGUGGC | -3.27 ± 0.19 | -2.61 ± 0.34
CCGAAGCAAUAUUACGUUAA |  | -0.989 ± 0.23
CCGAAGCAAUAUUACGUUCA | -2.76 ± 0.16 | -0.988 ± 0.23
CCGCAGCAAUAUUACGAAGU | -3.34 ± 0.31 | -2.5 ± 0.33
CCGCAGCAAUAUUACGACGU | -3.96 ± 0.21 | -2.38 ± 0.22
CCGCAGCAAUAUUACGAGUA | -3.31 ± 0.24 | -2.82 ± 0.28

Sequence | self-splicing fitness (ln) (30 °C) | self-splicing fitness (ln) (37 °C)
CCGCAGCAAUAUUACGAUUG | -0.997 ± 0.085 | -0.816 ± 0.09
CCGCAGCAAUAUUACGCAAA | -3.29 ± 0.21 | -2.15 ± 0.22
CCGCAGCAAUAUUACGCAGU | -2.96 ± 0.18 | -1.48 ± 0.17
CCGCAGCAAUAUUACGCAUA | -3.34 ± 0.19 | -2.31 ± 0.17
CCGCAGCAAUAUUACGCCCU | -3.34 ± 0.47 | 0.196 ± 0.3
CCGCAGCAAUAUUACGCCGU | -3.34 ± 0.27 | -2.26 ± 0.22
CCGCAGCAAUAUUACGGCAA | -2.74 ± 0.24 | -2.53 ± 0.22
CCGCAGCAAUAUUACGGCGA | -1.15 ± 0.084 | -0.544 ± 0.085
CCGCAGCAAUAUUACGGCGC |  | -0.961 ± 0.22
CCGCAGCAAUAUUACGGUCA | -3.47 ± 0.29 | -2.46 ± 0.3
CCGCAGCAAUAUUACGUACU | -4.17 ± 0.33 | -3.33 ± 0.4
CCGCAGCAAUAUUACGUCCU | -3.12 ± 0.18 | -1.39 ± 0.17
CCGCAGCAAUAUUACGUCUU | -3.69 ± 0.37 | -3.07 ± 0.24
CCGCAGCAAUAUUACGUUAC | -3.36 ± 0.14 | -2.29 ± 0.14
CCGGAGCAAUAUUACGAAAC | -1.5 ± 0.23 | -0.933 ± 0.2
CCGGAGCAAUAUUACGAAGG | -2.63 ± 0.14 | -2.28 ± 0.22
CCGGAGCAAUAUUACGAGCG | -0.715 ± 0.082 | 0.256 ± 0.12
CCGGAGCAAUAUUACGAGGA |  | -1.96 ± 0.24
CCGGAGCAAUAUUACGAGGU | -3.56 ± 0.46 | -2.6 ± 0.31
CCGGAGCAAUAUUACGAUCC | -2.16 ± 0.49 | 
CCGGAGCAAUAUUACGCCCG | -1.86 ± 0.41 | 
CCGGAGCAAUAUUACGCGUA | -3.18 ± 0.3 | -1.59 ± 0.2
CCGGAGCAAUAUUACGGCGA | -3.92 ± 0.33 | -2.42 ± 0.48
CCGGAGCAAUAUUACGUCGG | -3.63 ± 0.21 | -2.82 ± 0.3
CCGGAGCAAUAUUACGUGGC | -3.77 ± 0.39 | 

Sequence | self-splicing fitness (ln) (30 °C) | self-splicing fitness (ln) (37 °C)
CCGGAGCAAUAUUACGUUAU | -2.97 ± 0.31 | -2.01 ± 0.23
CCGUAGCAAUAUUACGACAA | -3.54 ± 0.27 | -3.19 ± 0.33
CCGUAGCAAUAUUACGAGGG | -3.25 ± 0.18 | -0.352 ± 0.17
CCGUAGCAAUAUUACGAUCG | 0.0338 ± 0.098 | 0.353 ± 0.12
CCGUAGCAAUAUUACGAUGA | -1.48 ± 0.11 | -1.13 ± 0.12
CCGUAGCAAUAUUACGCAUA | -2.31 ± 0.19 | -2.12 ± 0.33
CCGUAGCAAUAUUACGCCGG | -2.94 ± 0.49 | 
CCGUAGCAAUAUUACGCCGU | -3 ± 0.44 | -2.16 ± 0.27
CCGUAGCAAUAUUACGCCUC | -1.88 ± 0.44 | -1.82 ± 0.35
CCGUAGCAAUAUUACGCGAU | -2.48 ± 0.22 | -3.66 ± 0.35
CCGUAGCAAUAUUACGCGCG | -2.15 ± 0.17 | -0.999 ± 0.18
CCGUAGCAAUAUUACGCGGA | -2.85 ± 0.26 | -3.13 ± 0.26
CCGUAGCAAUAUUACGCGUA | -3.69 ± 0.3 | -2.06 ± 0.31
CCGUAGCAAUAUUACGGACG | -1.88 ± 0.26 | 
CCGUAGCAAUAUUACGGAGA | -3.01 ± 0.28 | -2.32 ± 0.38
CCGUAGCAAUAUUACGGCUG | -2.46 ± 0.21 | -1.19 ± 0.17
CCGUAGCAAUAUUACGUCUC | -3.43 ± 0.21 | -3.67 ± 0.31
CCGUAGCAAUAUUACGUUCU | -3.34 ± 0.28 | -3.36 ± 0.42
CCUAAGCAAUAUUACGACCA | -3.19 ± 0.21 | -1.46 ± 0.17
CCUAAGCAAUAUUACGACUG | -1.74 ± 0.15 | -0.483 ± 0.14
CCUAAGCAAUAUUACGACUU | -4.37 ± 0.17 | -2.4 ± 0.13
CCUAAGCAAUAUUACGAGUA | -2.5 ± 0.16 | -1.98 ± 0.18
CCUAAGCAAUAUUACGAUGC | -3.49 ± 0.17 | -1.88 ± 0.16
CCUAAGCAAUAUUACGCAAG | -4.71 ± 0.46 | 
